Measured values as given in patent US20250313627A1.

What was measured:
[1] = biological target: human ROR1 (Receptor Tyrosine Kinase-Like Orphan Receptor 1) on the cell surface (human) (UniProt Q01973); experiment: flow cytometry, LS174T cells expressing human ROR1 (low density)
[2] = biological target: human ROR1 (Receptor Tyrosine Kinase-Like Orphan Receptor 1) on the cell surface (human) (UniProt Q01973); experiment: flow cytometry, B16-F10 cells expressing human ROR1 (high density)
[3] = biological target: human ROR1 (Receptor Tyrosine Kinase-Like Orphan Receptor 1) on the cell surface (human) (UniProt Q01973); experiment: as above; remark: listed apart in the source
[4] = biological target: human ROR1 (Receptor Tyrosine Kinase-Like Orphan Receptor 1) on the cell surface (human) (UniProt Q01973); experiment: flow cytometry, LS174T cells expressing human ROR1 (low density); remark: listed apart in the source
[5] = biological target: human ROR1 (Receptor Tyrosine Kinase-Like Orphan Receptor 1) on the cell surface (human) (UniProt Q01973); experiment: flow cytometry, B16-F10 cells expressing human ROR1 (high density); remark: listed apart in the source
[6] = biological target: human ROR1 (Receptor Tyrosine Kinase-Like Orphan Receptor 1) on the cell surface (human) (UniProt Q01973); experiment: as above; remark: listed apart in the source
[7] = biological target: human ROR1 (Receptor Tyrosine Kinase-Like Orphan Receptor 1) on the cell surface (human) (UniProt Q01973); experiment: as above; remark: listed apart in the source
[8] = biological target: human ROR1 (Receptor Tyrosine Kinase-Like Orphan Receptor 1) on the cell surface (human) (UniProt Q01973); experiment: as above; remark: listed apart in the source

Chain of human ROR1 (Receptor Tyrosine Kinase-Like Orphan Receptor 1) on the cell surface (human) (Q01973 30-937): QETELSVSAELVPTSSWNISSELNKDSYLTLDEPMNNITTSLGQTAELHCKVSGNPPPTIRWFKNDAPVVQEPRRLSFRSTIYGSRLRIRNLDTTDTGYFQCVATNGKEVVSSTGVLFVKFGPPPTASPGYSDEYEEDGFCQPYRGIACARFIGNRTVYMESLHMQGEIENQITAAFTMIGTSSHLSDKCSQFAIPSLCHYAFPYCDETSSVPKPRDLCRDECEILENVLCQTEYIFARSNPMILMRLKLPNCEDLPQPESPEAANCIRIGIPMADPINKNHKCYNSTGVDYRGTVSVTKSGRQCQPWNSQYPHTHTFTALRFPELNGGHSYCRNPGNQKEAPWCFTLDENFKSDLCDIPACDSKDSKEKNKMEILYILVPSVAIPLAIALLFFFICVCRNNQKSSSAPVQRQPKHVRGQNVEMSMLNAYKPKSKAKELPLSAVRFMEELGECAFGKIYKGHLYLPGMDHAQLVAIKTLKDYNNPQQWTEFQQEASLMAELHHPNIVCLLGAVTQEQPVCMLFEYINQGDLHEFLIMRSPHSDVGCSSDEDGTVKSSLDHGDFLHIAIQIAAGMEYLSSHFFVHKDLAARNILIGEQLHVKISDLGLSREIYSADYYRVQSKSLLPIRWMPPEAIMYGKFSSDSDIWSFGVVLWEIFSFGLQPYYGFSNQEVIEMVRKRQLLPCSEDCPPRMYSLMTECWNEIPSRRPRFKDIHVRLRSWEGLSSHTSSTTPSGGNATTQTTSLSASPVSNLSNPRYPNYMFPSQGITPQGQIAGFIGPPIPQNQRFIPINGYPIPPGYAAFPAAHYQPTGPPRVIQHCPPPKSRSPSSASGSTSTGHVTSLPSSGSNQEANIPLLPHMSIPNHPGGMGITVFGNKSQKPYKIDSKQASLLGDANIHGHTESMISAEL

Row | MFI [1] | MFI [2] | MFI [3] | MFI [4] | MFI [5] | MFI [6] | MFI [7] | MFI [8] | Substance
1 | 45.3 | 15.5 | 9.92 | 22.6 | 4.45 | 125 | 3.01 | 5.67 | goat anti human IgG-Fc specific PE secondary antibody, alone
2 |  | 12.1 | 13.3 |  | 6.85 | 1140 | 3.86 | 9.86 | Hen Egg Lysozyme (HEL)-specific antibody
3 | 54 | 4.36 | 6.53 | 23.2 | 4.31 | 94.6 | 2.08 | 6.1 | mIgG-PE (PE labeled mouse IgG Ab) (antibody)
4 | 316 |  |  | 30.8 |  |  |  |  | Human IgG1 (antibody)
